Source: patent US20080213277A1
Positions count from the first letter of the chain named.

B1: rat anti-human hepcidin monoclonal antibody R9 (antibody, V domains shown)
VH: QVTLKESGPGILQPSQTLSLTCSFSGFSLSTSGICVSWIRQPSGKGLEWLATICWEDSKGYNPSLKNRLTISKDTSNNQAFLKITSVDTADTAIYYCARPLNYGGYSELELDYWGQGVMVTVSS
VL: DIQMTQSPSLLSASVGDRVTLSCKASQNIYKYLNWYQQKLGEAPKLLIYYTNSLQTGIPSRFSGSGSGTDFTLTISSLQPEDVATYYCYQYNSGPTFGAGTKLELK
B2: murine anti-human hepcidin monoclonal antibody Ab43 (antibody, V domains shown)
VH: QIQLVQSGPELKKPGETVKISCKASGYTFTTYGMSWVKQAPGKGLKWMGWINTYSGVPTYADDFKGRFAFSLETSASTAYLQINNLKNEDTATYFCASLWYYGRAFDYWGQGTTLTVSS
VL: NIVLTQSPASLAVSLGQRATISCRASESVDSYGNSFMHWYQQKPGQPPKLLIYLASNLESGVPARFSGSGSRTDFTLTIDPVEADDAATYYCQQNNEDRTFGGGTKLEIK
B3: murine anti-human hepcidin monoclonal antibody 2.7 (antibody, V domains shown)
VH: QIQLVQSGPELKKPGETVKISCKASGYTFTTYGMSWVKQAPGKGLKWMGWINTYSGVPTYADDFKGRFAFSLETSASTAYLQINNLKNEDTATYFCGRDHYYGEVAYWGQGTLVTVSA
VL: B2 VL with N1D, L54R, V62I, D80N, A87V, Q93H, N95S, D98E, R99Y
B4: murine anti-human hepcidin monoclonal antibody 2.41 (antibody, V domains shown)
VH: B3 VH with Y54S, K65M, G97A, H100R
VL: DIVLTQSPASLAVSLGQRATISCRASESVDSFGNSFMHWYQLKPGQPPKLLIYRASNLESGIPARFSGSGSRTDFTLTINPVEADDVAIYYCQQSNEEYTFGGGTKLEIK

Assays:
[1] = target: C1-C8, C3-C6 hepcidin variant (human); assay: BIAcore: 1 nM antibody preincubated with 10 nM of this hepcidin form in solution, then run over immobilized rhHepc surface; % = free antibody still binding the surface (low % = strong binding to the solution form)
[2] = target: linear hepcidin variant (human); assay: as above

Binder	Binding to Hepcidin Surface (%) [1] [%]	Binding to Hepcidin Surface (%) [2] [%]
B1	63	100
B2	25	100
B3	3	100
B4	1	99
